# Source: publication PMC4827828, “Cupincin: A Unique Protease Purified from Rice (Oryza sativa L.) Bran Is a New Member of the Cupin Superfamily” (PLoS ONE, 2016)
# B1: Cupincin (hypothetical protein OsI_13867) (enzyme, UniProt B8AL97 35-470, looked up)
# chain: SRRGEREEEDERRRHGGEGGRPYHFGEESFRHWTRTRHGRFSVLERFPDEQVVGAAVGGYRVAVLEAAPRAFLQPSHYDADEVFYVKEGEGVIVLLREGRKESFCVREGDAMVIPAGAIVYSANTHSSKWFRVVMLLNPVSTPGHFEEYFPVGGDRPESFFSAFSDDVLQAAFNTRREELEKVFERQREGGEITTAPEEQIRELSKSCSRGGGGGSGSEWEIKPSSLTGKSPYFSNNHGKLFELTGDECRHLKKLDLQIGLANITRGSMIAPNYNTRATKLAVVLQGSGYFEMACPHVSGGGSSERREREREHGRRREEEQGEEEHGERGEKARRYHKVRAQVREGSVIVIPASHPATIVASEGESLAVVCFFVGANHDEKVFLAGRNSPLRQLDDPAKKLVFGGSAAREADRVLAAQPEQILLRGPHGRGSVSDM
# notes: Cupincin, hypothetical protein OsI_13867 of Oryza sativa L., 436 residues and 48492.94 Da in the database entry; The native protein runs in SDS-PAGE as three polypeptides (about 34.5, 26.9 and 15.9 kDa) that all match OsI_13867; also called purified protease from rice bran; source: purified from rice bran (variety IR-64): ammonium sulphate fractionation (40-80%), Sephadex G-150
# Biological target: the molecule itself
# Assay: SEC; analytical gel filtration on Progel-TSK W-3047 (HPLC), 0.1 M sodium phosphate buffer pH 7.0, 1 mL/min; calibrated with standards of 6.5-160 kDa; apparent mass 135.33 ± 3.5 kDa against 48.5 kDa from the sequence
protein,measurement,value
B1,stoichiometry N,3
